In publication PMC8781954, “High-Efficiency Expression and Purification of DNAJB6b Based on the pH-Modulation of Solubility and Denaturant-Modulation of Size” (Molecules, 2022):

Target: T1, DNAJB6b wt (human, UniProt O75190-2 1-241)
T1 construct: DNAJB6b, human, the 241-residue b isoform of DNAJB6; No tags; also called wt DNAJB6b; unlabelled DNAJB6b
Experiment: native gel or EMSA; agarose gel imaged on an IR fluorescence scanner; 5 nM DNAJB6b-CCys-IR680 mixed with unlabelled DNAJB6b-wt to total concentrations of 5 nM to 32 µM
Conditions: both partners purified

T1 sequence (O75190 other isoform, or with tags, fused parts or gaps): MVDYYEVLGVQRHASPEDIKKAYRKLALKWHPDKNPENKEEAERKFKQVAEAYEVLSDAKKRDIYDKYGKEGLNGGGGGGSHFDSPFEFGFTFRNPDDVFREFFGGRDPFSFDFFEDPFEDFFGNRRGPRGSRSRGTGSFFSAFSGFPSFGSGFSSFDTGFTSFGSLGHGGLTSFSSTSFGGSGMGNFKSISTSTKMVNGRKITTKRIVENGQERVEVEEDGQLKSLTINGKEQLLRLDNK

- binding result: binds
B1: DNAJB6b-CCys-IR680 (natural protein)
chain: not shown
modifications: IRdye-680 (maleimide dye) on the engineered C-terminal cysteine
notes: DNAJB6b, human, the 241-residue b isoform of DNAJB6, no tags; a cysteine residue added at the C-terminus (variant CCys); also called IR680-labelled DBAJB6b; DNAJB6-CCys labelled with IRdye680; source: E. coli BL21 DE3 pLysS star, purified as wt with 1 mM DTT in all buffers; labelled with IRdye680 maleimide, free dye removed by SEC
